Data on seven molecules can be found in article doi:10.1101/2024.04.04.584535, “Human Saposin B Ligand Binding and Presentation to α-Galactosidase A” (bioRxiv, 2024).

B3: α-galactosidase A D170A (catalytic nucleophile mutant) (enzyme, human)
chain: LDNGLARTPTMGWLHWERFMCNLDCQEEPDSCISEKLFMEMAELMVSEGWKDAGYEYLCIDDCWMAPQRDSEGRLQADPQRFPHGIRQLANYVHSKGLKLGIYADVGNKTCAGFPGSFGYYDIDAQTFADWGVDLLKFAGCYCDSLENLADGYKHMSLALNRTGRSIVYSCEWPLYMWPFQKPNYTEIRQYCNHWRNFADIDDSWKSIKSILDWTSFNQERIVDVAGPGGWNDPDMLVIGNFGLSWNQQVTQMALWAIMAAPLFMSNDLRHISPQAKALLQDKDVIAINQDPLGKQGYQLRQGDNFEVWERPLSGLAWAVAMINRQEIGGPRSYTIAVASLGKGVACNPACFITQLLPVKRKLGFYEWTSRLRSHINPTGTVLLQLENTMQMSLKDLL
notes: human α-galactosidase A (UniProt P06280), D170A mutant; Secreted into the Sf9 supernatant, so the signal peptide is probably removed (surmised); Glycosylated; Homodimer; also called GLA^D170A; GLA

Data set [1] concerns the target T1, α-galactosidase A, wild type (human, UniProt P06280 32-429).
T1 sequence (looked up): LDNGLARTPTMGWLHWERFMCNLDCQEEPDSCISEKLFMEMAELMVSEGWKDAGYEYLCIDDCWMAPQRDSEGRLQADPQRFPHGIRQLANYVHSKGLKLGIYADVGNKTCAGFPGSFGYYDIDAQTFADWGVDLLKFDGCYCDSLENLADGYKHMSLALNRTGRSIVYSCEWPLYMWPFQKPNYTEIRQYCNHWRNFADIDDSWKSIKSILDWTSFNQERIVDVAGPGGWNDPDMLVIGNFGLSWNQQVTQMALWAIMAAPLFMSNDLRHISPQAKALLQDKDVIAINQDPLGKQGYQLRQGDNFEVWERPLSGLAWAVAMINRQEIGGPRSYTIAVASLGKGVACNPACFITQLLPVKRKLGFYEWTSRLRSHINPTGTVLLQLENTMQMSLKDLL

For data set [2], the target named is T2, SapB (saposin B; sphingolipid activator protein B) (Homo sapiens, UniProt P07602).
T2 sequence (P07602 195-273): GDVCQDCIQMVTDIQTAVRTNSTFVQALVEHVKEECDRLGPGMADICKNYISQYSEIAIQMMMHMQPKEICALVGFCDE
The experiment in a line: NBD fluorescence equilibrium binding (pH […] days), weak. Set-up: gene PSAP; mature saposin B, E. coli expressed.

The target of data set [3] is Sphingolipid activator protein B (saposin B) (human) (UniProt P07602). The experiment in a line: cross-linking; BS3 cross-linker (0-1 mM), 10 μM GLA^D170A or GAA, 50-100 μM SapB (with 20% SapB^ANBD in some gels) or 100 μM SapD, 0-200 μM Gb3-NBD, PBS pH 6.5, one hour; Tricine-SDS-PAGE with One-Step Blue stain, in-gel NBD fluorescence and anti-GLA western blot; also at 10 μM SapB^ANBD, 1 μM GLA^D170A, 50 μM Gb3-NBD.

For data set [4] the target is unchanged. The experiment in a line: crystal structure; SapB co-crystallised with Gb3-NBD at about molar equivalence; 3.25 M malonate pH 5, 20 °C; 2.68 Å.
The target of the next data set is T3, SapD (saposin D) (Homo sapiens, UniProt P07602).
T3 construct: gene PSAP; mature saposin D, E. coli expressed
T3 sequence (P07602 405-486): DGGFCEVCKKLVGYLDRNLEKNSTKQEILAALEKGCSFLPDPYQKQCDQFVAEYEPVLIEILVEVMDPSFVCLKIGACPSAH
Put plainly: NBD fluorescence equilibrium binding, acidic pH only.

In data set [5] the target is T2, SapB (saposin B; sphingolipid activator protein B). The experiment in a line: NBD fluorescence equilibrium binding (pH […] h); also SEC co-migration and LC-MS of co-crystals. Set-up: gene PSAP; mature saposin B, E. coli expressed (SapB dimer).
The target of data set [6] is T1, α-galactosidase A, wild type. Put plainly: cell-based or functional assay.
The target of data set [7] is B3. Put plainly: cross-linking; BS3 cross-linker (0-1 mM), 10 μM GLA^D170A or GAA, 50-100 μM SapB (with 20% SapB^ANBD in some gels) or 100 μM SapD, 0-200 μM Gb3-NBD, PBS pH 6.5, one hour; Tricine-SDS-PAGE with One-Step Blue stain, in-gel NBD fluorescence and anti-GLA western blot; also at 10 μM SapB^ANBD, 1 μM GLA^D170A, 50 μM Gb3-NBD. To be noted: both partners purified.

Substrate in the data set “purified protein”: O=[N+]([O-])c1ccc(O[C@H]2O[C@H](CO)[C@H](O)[C@H](O)[C@H]2O)cc1
The experiment in a line: purified protein. In kind it is biochemical, Homo sapiens.

Data set [8] concerns the molecule itself. Put plainly: crystal structure; SapB preincubated with DDAO detergent (~1:47) at pH 5, mixed with GLA^D170A; crystals in 0.1 M Tris pH 8, 1 M ammonium sulfate, 20 °C; 3.53 Å.

In data set [1], “SapB^ANBD (SapB N21C labelled with IANBD amide) (natural protein)” gave a galactose production from Gb3-NBD by GLA in an 18-hour enzyme-activator assay, relative to wild-type SapB of 80%.

In [2], `CCCCCCCCCCCCCCC[C@@H](O)[C@H](CO)NC(=O)CCCCCCCCCCCNc1ccc([N+](=O)[O-])c2nonc12` [Cer-NBD] yielded a dissociation constant (Kd) greater than 95 µM.

For the molecule “Sphingolipid activator protein B (saposin B) (from UniProt P07602 195-273) (natural protein)”, the stoichiometry N in data set [3] and in [4] was 2 each time.

Turning to `CCCCCCCCCCCCC/C=C/[C@@H](O)[C@H](CO[C@@H]1O[C@H](CO)[C@@H](O[C@@H]2O[C@H](CO)[C@H](O[C@H]3O[C@H](CO)[C@H](O)[C@H](O)[C@H]3O)[C@H](O)[C@H]2O)[C@H](O)[C@H]1O)NC(=O)CCCCCCCCCCCNc1ccc([N+](=O)[O-])c2nonc12` [Gb3-NBD], the Kd at SapD (saposin D) came out at 38 ± 2 µM; in data set [5] it was 5.8 ± 0.5 µM.

B1: Saposin D (natural protein, human, UniProt P07602 405-486, looked up)
chain: DGGFCEVCKKLVGYLDRNLEKNSTKQEILAALEKGCSFLPDPYQKQCDQFVAEYEPVLIEILVEVMDPSFVCLKIGACPSAH
notes: saposin D, the mature cut product of prosaposin (UniProt P07602); Tag printed as enterokinase-cleavable N-terminal His8-DDDDK-GAS; GAS probably left after cleavage (surmised); also called SapD; source: E. coli Shuffle T7 Express, purified (heat shock, Ni agarose, enterokinase cleavage, SEC); not shown: His8, N-terminal, cleaved
As for B1, the “free galactose released from Gb3-NBD by wild-type GLA after 2.5 hours in acidic buffer (Amplex Red galactose assay); SapD at a tenfold molar excess to GLA” value in data set [6] was roughly 5 µM. The binding result in [7] is recorded as “binds”.

B2: α-galactosidase A (GLA) (Homo sapiens) (protein)
chain: LDNGLARTPTMGWLHWERFMCNLDCQEEPDSCISEKLFMEMAELMVSEGWKDAGYEYLCIDDCWMAPQRDSEGRLQADPQRFPHGIRQLANYVHSKGLKLGIYADVGNKTCAGFPGSFGYYDIDAQTFADWGVDLLKFDGCYCDSLENLADGYKHMSLALNRTGRSIVYSCEWPLYMWPFQKPNYTEIRQYCNHWRNFADIDDSWKSIKSILDWTSFNQERIVDVAGPGGWNDPDMLVIGNFGLSWNQQVTQMALWAIMAAPLFMSNDLRHISPQAKALLQDKDVIAINQDPLGKQGYQLRQGDNFEVWERPLSGLAWAVAMINRQEIGGPRSYTIAVASLGKGVACNPACFITQLLPVKRKLGFYEWTSRLRSHINPTGTVLLQLENTMQMSLKDLL
notes: wild-type human GLA, C-terminal 2x-FLAG, Sf9 expressed
On to B2, for which the Km in “purified protein” came to 9.9 mM.

For the molecule B3, in the data set “purified protein”, the Michaelis-Menten constant (Km) was 7.4 mM. Moreover, the “stoichiometry N” value in [8] is 2.
